Among the data in the Immune Epitope Database (IEDB) are Kd values, retold here.

Usually Kd stands for the equilibrium constant for the complex coming apart.

Experiment [1] deals with HLA-A*01:01. The experiment is described as follows: IEDB peptide-MHC binding, purified MHC/competitive/fluorescence; filed as Kd, often an IC50 or EC50 that approximates it; ≥ and ≤ were set here for values at or beyond the usual limits of such assays.
The target in experiment [2] is HLA-A*02:01. Kind of experiment: IEDB peptide-MHC binding, purified MHC/direct/fluorescence; filed as Kd, often an IC50 or EC50 that approximates it; ≥ and ≤ were set here for values at or beyond the usual limits of such assays.
Experiment [3] deals with HLA-A*26:01. The description is as above.
In experiment [4] the target is HLA-A*31:01. Described as above.
The target in experiment [5] is HLA-B*27:05. Described as above.
For experiment [6], the target named is HLA-B*40:01. The experiment is described as above.
For experiment [7], the target named is HLA-B*46:01. Described as above.
Experiment [8] has as its target HLA-B*48:01. Described as above.
Experiment [9] has as its target HLA-B*58:01. The description is as above.
In experiment [10] the target is HLA-A*03:01. The experiment is described as follows: IEDB peptide-MHC binding, purified MHC/competitive/fluorescence; filed as Kd, often an IC50 or EC50 that approximates it; ≥ and ≤ were set here for values at or beyond the usual limits of such assays.
In experiment [11] the target is HLA-A*11:01. The description is as above. As to conditions: source organism: Variola virus.
Experiment [12] has as its target HLA-A*69:01. The experiment is described as above.
Experiment [13] has as its target HLA-B*15:17. Described as above. To be noted: source organism: Variola virus.
The target in experiment [14] is HLA-B*57:01. Described as above. As to conditions: source organism: Variola virus.
For experiment [15], the target named is HLA-A*33:01. The experiment is described as follows: IEDB peptide-MHC binding, purified MHC/competitive/radioactivity; filed as Kd, often an IC50 or EC50 that approximates it; ≥ and ≤ were set here for values at or beyond the usual limits of such assays. As to conditions: source organism: Vaccinia virus WR.
Experiment [16] addresses HLA-A*68:01. The description is as above. To be noted: source organism: Vaccinia virus WR.
Experiment [17] has as its target HLA-A*26:02. Kind of experiment: IEDB peptide-MHC binding, purified MHC/direct/fluorescence; filed as Kd, often an IC50 or EC50 that approximates it; ≥ and ≤ were set here for values at or beyond the usual limits of such assays.
Experiment [18] addresses HLA-A*01:01. Described as above.
Experiment [19] concerns the target HLA-A*03:01. The description is as above.
Experiment [20] has as its target HLA-A*11:01. The experiment is described as above. To be noted: source organism: Coxiella burnetii.
Experiment [21] addresses HLA-A*68:02. The experiment is described as above.
The target of experiment [22] is HLA-A*69:01. Described as above. As to conditions: source organism: Coxiella burnetii.
Experiment [23] deals with HLA-B*07:02. The description is as above.
The target of experiment [24] is HLA-B*08:01. The description is as above. As to conditions: source organism: Coxiella burnetii Q321.
Experiment [25] concerns the target HLA-B*08:02. The description is as above. As to conditions: source organism: Coxiella burnetii Q321.
Experiment [26] has as its target HLA-B*15:01. Described as above.
In experiment [27] the target is HLA-B*15:17. The description is as above. As to conditions: source organism: Coxiella burnetii.
Experiment [28] concerns the target HLA-B*18:01. Described as above. As to conditions: source organism: Coxiella burnetii.
For experiment [29], the target named is HLA-B*57:01. The description is as above. As to conditions: source organism: Coxiella burnetii.
In experiment [30] the target is HLA-A*02:03. The description is as above. As to conditions: source organism: Calabazo virus.
Experiment [31] has as its target HLA-A*02:16. Described as above. As to conditions: source organism: Calabazo virus.
For experiment [32], the target named is HLA-C*14:02. The experiment is described as above. To be noted: source organism: Orthohantavirus andesense.
Experiment [33] addresses HLA-C*15:02. The experiment is described as above. As to conditions: source organism: Orthohantavirus andesense.
For experiment [34], the target named is HLA-A*26:01. Kind of experiment: IEDB peptide-MHC binding, purified MHC/competitive/fluorescence; filed as Kd, often an IC50 or EC50 that approximates it; ≥ and ≤ were set here for values at or beyond the usual limits of such assays.
The target of experiment [35] is HLA-B*15:01. The experiment is described as above.
Experiment [36] addresses HLA-B*18:01. The description is as above. As to conditions: source organism: Orthohantavirus andesense.
Experiment [37] concerns the target HLA-B*27:03. The experiment is described as above. As to conditions: source organism: Orthohantavirus andesense.
Experiment [38] addresses HLA-B*39:01. The description is as above. To be noted: source organism: Orthohantavirus andesense.
Experiment [39] concerns the target HLA-B*46:01. Described as above. To be noted: source organism: Orthohantavirus andesense.
Experiment [40] has as its target HLA-B*51:01. The experiment is described as above. To be noted: source organism: Orthohantavirus andesense.
Experiment [41] has as its target HLA-B*58:01. Described as above. As to conditions: source organism: Burkholderia orbicola.
The mark [42] stands for this setting: source organism: Camelpox virus M-96.
Where [43] appears, read: source organism: Vibrio cholerae V51.
[44] abbreviates: source organism: Coxiella burnetii.
[45] abbreviates: source organism: Coxiella burnetii Q321.
Setting [46] is: source organism: Burkholderia mallei.
The mark [47] stands for this setting: source organism: Burkholderia mallei ATCC 23344.
Setting [48] is: source organism: Calabazo virus.
Where [49] appears, read: source organism: Orthohantavirus andesense.
The mark [50] stands for this setting: source organism: Burkholderia orbicola.

Some results are limits rather than exact numbers.

In experiment [1] (source organism: Homo sapiens), LVFLGPGLY came in with a Kd of 0.221 µM.

In the case of ETIEILRNY, the Kd in experiment [2] (setting [42]) was ≥ 20 µM; in experiment [3] (setting [42]) it was 0.0021 µM; in experiment [4] (setting [42]), ≥ 20 µM; in experiment [5] (setting [42]) it was ≥ 20 µM; in [6] (setting [42]) it was ≥ 20 µM; in experiment [7] (setting [42]), ≥ 20 µM. The Kd in experiment [8] (setting [42]) was ≥ 20 µM; in experiment [9] (setting [42]), ≥ 20 µM; in [1] (source organism: Variola virus), 3.6 µM; in experiment [10] (source organism: Variola virus), 1.95 µM; in experiment [11], ≥ 20 µM; in experiment [12] (source organism: Variola virus) it was ≥ 20 µM. In addition, the Kd in experiment [13] amounted to 0.0869 µM; in experiment [14], 0.926 µM; in [15] it was 2.14 µM; in [16], 0.0146 µM.

Take AIARGFHFY: the Kd is 1.07 µM in experiment [3] (setting [43]) and 0.107 µM in experiment [17] (setting [43]).

For the sequence VFFKQWFEK, the Kd in experiment [18] (setting [44]) was ≥ 20 µM; in experiment [2] (setting [44]) it was ≥ 20 µM; in experiment [19] (setting [44]), 0.312 µM; in experiment [20], 0.163 µM; in experiment [3] (setting [45]), ≥ 20 µM; in experiment [17] (setting [45]) it was ≥ 20 µM. In addition, the Kd in [4] (setting [44]) is 0.066 µM; in [21] (setting [44]), ≥ 20 µM; in [22], ≥ 20 µM; in experiment [23] (setting [44]), ≥ 20 µM; in experiment [24] it was ≥ 20 µM; in [25], ≥ 20 µM. The Kd in [26] (setting [44]), in experiment [27], in [28], in experiment [5] (setting [44]), in experiment [6] (setting [44]) and in experiment [7] (setting [44]) was ≥ 20 µM in each case. Moreover, the Kd in experiment [8] (setting [44]), in [29] and in experiment [9] (setting [44]) was ≥ 20 µM each time.

On to STYQPLPLY, for which the Kd in experiment [18] (setting [46]) is 0.971 µM; in [2] (setting [46]), ≥ 20 µM; in experiment [19] (setting [46]), ≥ 20 µM; in [3] (setting [47]), 0.039 µM; in [17] (setting [47]), ≤ 0.001 µM; in [23] (setting [46]), ≥ 20 µM. Also, the Kd in [26] (setting [46]) was 0.0245 µM; in experiment [5] (setting [46]), ≥ 20 µM; in [9] (setting [46]), 0.195 µM.

Take RMMATKDSF: the Kd is ≥ 20 µM in [30]; ≥ 20 µM in experiment [31]; ≥ 20 µM in experiment [19] (setting [48]); ≥ 20 µM in experiment [21] (setting [48]); 0.0065 µM in experiment [9] (source organism: Orthohantavirus moroense); 0.157 µM in [32]. The Kd was ≥ 20 µM in experiment [33]; ≥ 20 µM in [34] (setting [49]); ≥ 20 µM in experiment [12] (setting [49]); 0.0441 µM in experiment [35] (setting [49]); ≥ 20 µM in [36]; ≥ 20 µM in experiment [37]. For the same sequence, the Kd in [38], in experiment [39] and in experiment [40] was ≥ 20 µM throughout.

Turning to ASAAHLAAY, the Kd in experiment [1] (setting [50]) was 0.0236 µM; in experiment [10] (setting [50]) it was 0.7 µM; in [34] (setting [50]), 0.775 µM; in experiment [35] (setting [50]), 0.156 µM; in [41], 1.26 µM.
